According to the Human Domainome abundance scans (Beltran et al. 2025):
± gives the uncertainty stated by the source.

B1: Tripartite motif-containing protein 44, residues 174 to 218; numbered along this chain, Q96DX7 (parent)
chain: VAKRKCPDHGLDLSTYCQEDRQLICVLCPVIGAHQGHQLSTLDEA

Variants of: B1
Assay: abundance fitness (aPCA) (normalised: wild type 0, dead -1); higher = more abundant; growth selection in yeast, the domain comes from the species named
Details: Homo sapiens

First: VTKRKCPDHGLDLSTYCQEDRQLICVLCPVIGAHQGHQLSTLDEA [A2T]
Second: VVKRKCPDHGLDLSTYCQEDRQLICVLCPVIGAHQGHQLSTLDEA [A2V]
The abundance fitness of the first is higher: 0.12 ± 0.039 for the first, -0.037 ± 0.028 for the second.

First: VYKRKCPDHGLDLSTYCQEDRQLICVLCPVIGAHQGHQLSTLDEA [A2Y]
Second: VAARKCPDHGLDLSTYCQEDRQLICVLCPVIGAHQGHQLSTLDEA [K3A]
The abundance fitness of the first is higher: -0.027 ± 0.059 for the first, -0.134 ± 0.027 for the second.

Going from VACRKCPDHGLDLSTYCQEDRQLICVLCPVIGAHQGHQLSTLDEA [K3C] to VADRKCPDHGLDLSTYCQEDRQLICVLCPVIGAHQGHQLSTLDEA [K3D], the abundance fitness rises from -0.379 ± 0.033 to 0.024 ± 0.032.

First: VAERKCPDHGLDLSTYCQEDRQLICVLCPVIGAHQGHQLSTLDEA [K3E]
Second: VAFRKCPDHGLDLSTYCQEDRQLICVLCPVIGAHQGHQLSTLDEA [K3F]
The abundance fitness of the first is higher: 0.02 ± 0.028 for the first, -0.124 ± 0.054 for the second.

VAGRKCPDHGLDLSTYCQEDRQLICVLCPVIGAHQGHQLSTLDEA [K3G] and VAHRKCPDHGLDLSTYCQEDRQLICVLCPVIGAHQGHQLSTLDEA [K3H] are within error of each other in abundance fitness: -0.052 ± 0.026 for the first, -0.08 ± 0.057 for the second.

Going from VAIRKCPDHGLDLSTYCQEDRQLICVLCPVIGAHQGHQLSTLDEA [K3I] to VALRKCPDHGLDLSTYCQEDRQLICVLCPVIGAHQGHQLSTLDEA [K3L], the abundance fitness falls from 0.032 ± 0.04 to -0.09 ± 0.027.

VANRKCPDHGLDLSTYCQEDRQLICVLCPVIGAHQGHQLSTLDEA [K3N] and VAPRKCPDHGLDLSTYCQEDRQLICVLCPVIGAHQGHQLSTLDEA [K3P] are within error of each other in abundance fitness: -0.042 ± 0.074 for the first, -0.093 ± 0.031 for the second.

VAQRKCPDHGLDLSTYCQEDRQLICVLCPVIGAHQGHQLSTLDEA [K3Q] and VARRKCPDHGLDLSTYCQEDRQLICVLCPVIGAHQGHQLSTLDEA [K3R] are within error of each other in abundance fitness: -0.038 ± 0.033 for the first, -0.073 ± 0.026 for the second.

VASRKCPDHGLDLSTYCQEDRQLICVLCPVIGAHQGHQLSTLDEA [K3S] and VATRKCPDHGLDLSTYCQEDRQLICVLCPVIGAHQGHQLSTLDEA [K3T] are within error of each other in abundance fitness: -0.056 ± 0.031 for the first, -0.013 ± 0.033 for the second.

Compared with VAVRKCPDHGLDLSTYCQEDRQLICVLCPVIGAHQGHQLSTLDEA [K3V], VAWRKCPDHGLDLSTYCQEDRQLICVLCPVIGAHQGHQLSTLDEA [K3W] is lower in abundance fitness: -0.076 ± 0.028 for the first, -0.196 ± 0.029 for the second.

VAYRKCPDHGLDLSTYCQEDRQLICVLCPVIGAHQGHQLSTLDEA [K3Y] and VAKAKCPDHGLDLSTYCQEDRQLICVLCPVIGAHQGHQLSTLDEA [R4A] are within error of each other in abundance fitness: -0.137 ± 0.052 for the first, -0.062 ± 0.029 for the second.

Compared with VAKCKCPDHGLDLSTYCQEDRQLICVLCPVIGAHQGHQLSTLDEA [R4C], VAKDKCPDHGLDLSTYCQEDRQLICVLCPVIGAHQGHQLSTLDEA [R4D] is higher in abundance fitness: -0.248 ± 0.056 for the first, 0.016 ± 0.033 for the second.

VAKEKCPDHGLDLSTYCQEDRQLICVLCPVIGAHQGHQLSTLDEA [R4E] and VAKFKCPDHGLDLSTYCQEDRQLICVLCPVIGAHQGHQLSTLDEA [R4F] are within error of each other in abundance fitness: -0.046 ± 0.028 for the first, -0.041 ± 0.047 for the second.

Compared with VAKGKCPDHGLDLSTYCQEDRQLICVLCPVIGAHQGHQLSTLDEA [R4G], VAKHKCPDHGLDLSTYCQEDRQLICVLCPVIGAHQGHQLSTLDEA [R4H] is lower in abundance fitness: -0.057 ± 0.025 for the first, -0.198 ± 0.051 for the second.

VAKIKCPDHGLDLSTYCQEDRQLICVLCPVIGAHQGHQLSTLDEA [R4I] and VAKKKCPDHGLDLSTYCQEDRQLICVLCPVIGAHQGHQLSTLDEA [R4K] are within error of each other in abundance fitness: -0.046 ± 0.042 for the first, 0.007 ± 0.034 for the second.

First: VAKLKCPDHGLDLSTYCQEDRQLICVLCPVIGAHQGHQLSTLDEA [R4L]
Second: VAKMKCPDHGLDLSTYCQEDRQLICVLCPVIGAHQGHQLSTLDEA [R4M]
The abundance fitness of the first is lower: -0.061 ± 0.03 for the first, 0.023 ± 0.033 for the second.

First: VAKNKCPDHGLDLSTYCQEDRQLICVLCPVIGAHQGHQLSTLDEA [R4N]
Second: VAKPKCPDHGLDLSTYCQEDRQLICVLCPVIGAHQGHQLSTLDEA [R4P]
The abundance fitness of the first is higher: 0.071 ± 0.064 for the first, -0.314 ± 0.037 for the second.

VAKSKCPDHGLDLSTYCQEDRQLICVLCPVIGAHQGHQLSTLDEA [R4S] and VAKTKCPDHGLDLSTYCQEDRQLICVLCPVIGAHQGHQLSTLDEA [R4T] are within error of each other in abundance fitness: -0.054 ± 0.032 for the first, -0.07 ± 0.032 for the second.

First: VAKVKCPDHGLDLSTYCQEDRQLICVLCPVIGAHQGHQLSTLDEA [R4V]
Second: VAKWKCPDHGLDLSTYCQEDRQLICVLCPVIGAHQGHQLSTLDEA [R4W]
The abundance fitness of the first is higher: -0.086 ± 0.029 for the first, -0.162 ± 0.028 for the second.

Going from VAKRACPDHGLDLSTYCQEDRQLICVLCPVIGAHQGHQLSTLDEA [K5A] to VAKRCCPDHGLDLSTYCQEDRQLICVLCPVIGAHQGHQLSTLDEA [K5C], the abundance fitness rises from -0.235 ± 0.027 to -0.141 ± 0.036.

First: VAKRDCPDHGLDLSTYCQEDRQLICVLCPVIGAHQGHQLSTLDEA [K5D]
Second: VAKRECPDHGLDLSTYCQEDRQLICVLCPVIGAHQGHQLSTLDEA [K5E]
The abundance fitness of the first is lower: -0.409 ± 0.04 for the first, -0.173 ± 0.03 for the second.

Compared with VAKRFCPDHGLDLSTYCQEDRQLICVLCPVIGAHQGHQLSTLDEA [K5F], VAKRGCPDHGLDLSTYCQEDRQLICVLCPVIGAHQGHQLSTLDEA [K5G] is lower in abundance fitness: -0.129 ± 0.052 for the first, -0.218 ± 0.025 for the second.

VAKRHCPDHGLDLSTYCQEDRQLICVLCPVIGAHQGHQLSTLDEA [K5H] and VAKRICPDHGLDLSTYCQEDRQLICVLCPVIGAHQGHQLSTLDEA [K5I] are within error of each other in abundance fitness: -0.24 ± 0.063 for the first, -0.198 ± 0.16 for the second.

VAKRLCPDHGLDLSTYCQEDRQLICVLCPVIGAHQGHQLSTLDEA [K5L] and VAKRNCPDHGLDLSTYCQEDRQLICVLCPVIGAHQGHQLSTLDEA [K5N] are within error of each other in abundance fitness: -0.15 ± 0.028 for the first, -0.111 ± 0.07 for the second.

VAKRQCPDHGLDLSTYCQEDRQLICVLCPVIGAHQGHQLSTLDEA [K5Q] and VAKRRCPDHGLDLSTYCQEDRQLICVLCPVIGAHQGHQLSTLDEA [K5R] are within error of each other in abundance fitness: -0.163 ± 0.032 for the first, -0.159 ± 0.027 for the second.

VAKRSCPDHGLDLSTYCQEDRQLICVLCPVIGAHQGHQLSTLDEA [K5S] and VAKRTCPDHGLDLSTYCQEDRQLICVLCPVIGAHQGHQLSTLDEA [K5T] are within error of each other in abundance fitness: -0.125 ± 0.031 for the first, -0.115 ± 0.031 for the second.

First: VAKRVCPDHGLDLSTYCQEDRQLICVLCPVIGAHQGHQLSTLDEA [K5V]
Second: VAKRWCPDHGLDLSTYCQEDRQLICVLCPVIGAHQGHQLSTLDEA [K5W]
The abundance fitness of the first is higher: -0.135 ± 0.028 for the first, -0.308 ± 0.03 for the second.

First: VAKRYCPDHGLDLSTYCQEDRQLICVLCPVIGAHQGHQLSTLDEA [K5Y]
Second: VAKRKAPDHGLDLSTYCQEDRQLICVLCPVIGAHQGHQLSTLDEA [C6A]
The abundance fitness of the first is higher: -0.221 ± 0.06 for the first, -1.05 ± 0.064 for the second.

Compared with VAKRKDPDHGLDLSTYCQEDRQLICVLCPVIGAHQGHQLSTLDEA [C6D], VAKRKEPDHGLDLSTYCQEDRQLICVLCPVIGAHQGHQLSTLDEA [C6E] is lower in abundance fitness: -0.701 ± 0.076 for the first, -0.946 ± 0.087 for the second.
